Values of other authors, collected in paper PMC2582146 (Biochemistry, 2008).

Molecular target: N1P1 domain
Conditions: read-out: affinity

- Kd: 298 nM
B1: C-terminal 70 residues of CFTR: C-terminal 70 residues of CFTR, literature construct (ref 41) (protein, UniProt P13569 1411-1480, looked up, fragment)
chain: QQFLVIEENKVRQYDSIQKLLNERSLFRQAISPSDRVKLFPHRNSSKCKSKPQIAALKEETEEEVQDTRL
